Experimental data published in article PMC10011430.

Biological target: DENV NS2B3 protease, active site mutant NS2B3^S135A (coexpressed NS2B hydrophilic core and NS3 prote (Dengue virus (serotype not given)))
Assay: native gel or EMSA

Substance | Kd
cGAS cleavage product C-terminal (CP-C, 125-522) (from UniProt Q8N884 125-522) (domain or fragment) | 39.2 µM
full-length human cyclic GMP-AMP synthase (cGAS) (from UniProt Q8N884 1-522) (natural protein) | 21.6 µM
